Data from the domain aggregation screens of Martell et al. (2025).

Experiment: soluble fraction after stress (log2 fold change); higher = more stays soluble; pooled small domains, quantitative proteomics
Conditions: stress: pH 4
Outline: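 Custom libraries of small protein domains were pooled and exposed to pH 4. High-throughput quantitative proteomics then measured the log2 fold change in the amount of each domain still soluble, with higher values meaning more stayed soluble. This soluble-fraction fold change stands for aggregation propensity.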
For “HMSDDLIILGYSMLNNALKAFHIDPDSIKKKHWDKLAQDYHLKNKNQILTDIALGKRVNIMVAHQLTTIMD”, the “soluble fraction (log2)” value was -1.32.
For “HMSDDSYLVALAEAYKNATSWDIRRQVLSIMTGVSSYKEISRYIPGLTQYRLSISNLHRLQYGRAAPVP”, the “soluble fraction (log2)” value was -0.217.
In the case of “HMSDEAGKVLQLLRENGGYLPYNDRSDPEDIYAFFSMSKKTFKMTAGNLYKQKKIIFTNTGIKLTE”, the “soluble fraction (log2)” value is reported as 0.317.
For “HMSDEVNTDKAFRAIDSTLNRNVKGIAPRDHTLLRNTMITYFKSNDYIDYDTMIQSTLENYKPTELEQDKM”, the “soluble fraction (log2)” value was 0.135.
For “HMSDGHLIKVLEVLDGGEAFLGRTANGGTARFSLGQLADIRRGSVVFVSEDRWEVVPDSAWPEI”, the “soluble fraction (log2)” value was -1.29.
With “HMSDGIPDLRNLNFLSPQEGDYLNESDRVFGVTINGDGQAYPLRIVNAHEMVNDTLGGEPISLM” the “soluble fraction (log2)” value was -0.34.
With “HMSDHKNANFTKVVKVAQELLQDEDDKAGITPTLIEEKISAVLAMNRRWAEGLDRAAVADELIRRFSIW” the “soluble fraction (log2)” value was -0.951.
In the case of “HMSDIATLVPGPTDAELAASALRGLDAALDADTPVRLSLGEPGGEVEVPRSVLAALARVLDSFAHGEGVTL”, the “soluble fraction (log2)” value is reported as -0.443.
With “HMSDIISEIESQVMFKLATYEITNATEKMIEALINSEINDRRTLGFPIPNEQGRIFLVRSIQNKLAV” the “soluble fraction (log2)” value was -1.54.
In the case of “HMSDIIVQGNRRLDTDLIITDSQIREIGTDEKSLSLAVKNLYKTGYFENVQIFKDNSVVFINVKENQ”, the “soluble fraction (log2)” value is reported as -0.358.
For “HMSDIQKGTQINLVNEPLYVSSKTSIVSTYKTGTYYTWGFEANNRIAITNKLENIGVKGQVTGWINKP”, the “soluble fraction (log2)” value was 0.0239.
In the case of “HMSDKFNALWIILNKLDKKEKVTARSLMEDLEVSERSVYRYITTLQVAGFPVDYDRAVNSYVFSDGYTLK”, the “soluble fraction (log2)” value is reported as -2.16.
In the case of “HMSDKLTLPVQINGVFRYTIEINPSMQKDEIIDLVKNEERTAKYKQDKEIKNVIVVPGKIVNIII”, the “soluble fraction (log2)” value is reported as 0.22.
With “HMSDLPLLEHARQNLSDDEFRILELTTIYGYRRVEVAKMLGEPISTINWKYNKLIKKVKTFYGEVYN” the “soluble fraction (log2)” value was -0.567.
For “HMSDLVATKEQVVEAYKYGLGLGLDNSTLKMLLFDIRGEDVADQDKISDGMTVSEIEIWKEGMRTIAEEYL”, the “soluble fraction (log2)” value was -1.07.
In the case of “HMSDMIGQNIRRLRTEKQMTQKALADKLFVTAQAVSRWENGEVEPSLSTVTEIARIFNVSADEILGI”, the “soluble fraction (log2)” value is reported as -0.284.
For “HMSDPDPAEQALLRQFMTRYAAYRRRGQHPAGAFRTASLEVFGQEPSGDLRDVIVDLESGLV”, the “soluble fraction (log2)” value was -0.59.
With “HMSDPELNDNEKKIYDIIFNKKSMDLTELKNLSELSNKQWDKGIKSLSKQDFVKVIKTEEALIVELV” the “soluble fraction (log2)” value was -0.126.
With “HMSDPSAQADALFNEGKTAEAFNVLLRLIEDSPEDQREDYRVRLLDLFRIAGNTPEVKAARRRLSALLM” the “soluble fraction (log2)” value was -0.101.
For “HMSDRFVRIVMNDGTVKLGQMISEDADFIRLKTNNLGELNIPKYLVLDMMDLTRSEYVRLSISNAG”, the “soluble fraction (log2)” value was -0.426.
For “HMSDSAFAEMRRELEALRNSNAEYERALSNFFPEAEDKALAAEAFYQNREYDELVAEREEANVIDGLKR”, the “soluble fraction (log2)” value was -0.815.
With “HMSDSISLTLNGDLRRFRAHATIADLVRDIGLDPVKVAVERNLEIVSRSTLEDVVLADGDRLEIVHFV” the “soluble fraction (log2)” value was -2.67.
In the case of “HMSDSLVLTGVAYVDGKPVVTLFDKVKKESLVVTDQPNLKGWTLVEATQSSDIKRATAKVNIGGEPVSIRY”, the “soluble fraction (log2)” value is reported as -0.162.
In the case of “HMSDTFENILQRLIKATGRKNASEMANALGLSPQSVYSAKTKGKIPPAWIFAAAERFNASADWIYFGY”, the “soluble fraction (log2)” value is reported as -0.759.
In the case of “HMSDTSAIEKIIDEVLSDESSQKAINDIKNGNEKVYGFLVGQVMKKSQGKANPGLVQKMLREKIAK”, the “soluble fraction (log2)” value is reported as 0.22.
In the case of “HMSDYKSALQEAVQTNKQSIEYVLIKESGPAHNKTFTFEVRIDNISYGVGTAKSKKEAEQIAAKDALDKLV”, the “soluble fraction (log2)” value is reported as -0.103.
For “HMSDYVLLYSGLNTSDTTFLAYSFQEKGIRYKMPNPDEIEVRVQDVDQARRIAAGAQLGGQVS”, the “soluble fraction (log2)” value was -0.297.
In the case of “HMSEEGTIPDVSGQDEASAQKALENAGFTNIKSEAVYSEEEQGTVIDTNPTAGTKVSKDTEITMQVSKGSE”, the “soluble fraction (log2)” value is reported as 0.108.
For “HMSEEKLVFSIPDDIETMRIDKAIALETHLSRAQIAELFKENKILLNSKNSKRSEKVKPGDKISLEFIPKI”, the “soluble fraction (log2)” value was -0.0612.
For “HMSEEVKSQPISILDLSTRASNGLKNEGIETIGELVKYSEDELLGLDKFGQNSLKEIKKKLEEIGLTLKEH”, the “soluble fraction (log2)” value was -0.0527.
For “HMSEFLTIVRAVYSGLSRRKVAAMHKVSRNTVSLYLRQARDQGWLTLEDLEKLDDLTVSQGVS”, the “soluble fraction (log2)” value was -0.918.
With “HMSEFVIPLAKYNKALYTQVSLGMRFRMLFETEDSGVRRYMGTITGIGDLDPIRWKNSHWRNLQV” the “soluble fraction (log2)” value was 0.22.
In the case of “HMSEHLTLVVSDEDAGHRVDQFLVSRLAHMTRSQIQKLIKDGQVTIDTKLVRASTTVHTDNIVTIEFPPAV”, the “soluble fraction (log2)” value is reported as 0.314.
For “HMSEKLTLEAANEAAGMRIDKWLAMQLPELSRSRIEALISGGGVVVNGKNPSKSLKLKGGEQIELEIPE”, the “soluble fraction (log2)” value was 0.108.
With “HMSELLIVGSEQDNTRLDRFLADQYEEYTRSFLQKLIDQGNVSINGISVKKSGIKLKENDEIAVTLPEPQ” the “soluble fraction (log2)” value was -0.588.
In the case of “HMSELPLTQKVAIVMVALGEEASGEVMKHLSDYEIEEITQAIAGLKNISVELMDQILEEYEQHLIAG”, the “soluble fraction (log2)” value is reported as -0.536.
With “HMSELTKEIGKRIHDFRKSRGLNQEELARLIYKSKATLSKYEKGEIAIDLDTLKQLALALHVRMEQLLPPT” the “soluble fraction (log2)” value was no less than 0.43.
In the case of “HMSENDTILAKFVSVMGNKNLELVIFPDIAYLKGQVSNPEDKTKAETVAQSLLGGKPLVSLIEFE”, the “soluble fraction (log2)” value is reported as -0.917.
With “HMSENIQLQKEQLYQLIAQLPEQRQKIFRLHKIDNYSYQEISDFTGLSRKTIANHIYLAHQFILKKVKK” the “soluble fraction (log2)” value was -0.28.
With “HMSENKIMEIVQDLAREKSVILISHRLANVTAADKILYMEQGKIAESGTHEQLMAQNKAYAALFNKQQEL” the “soluble fraction (log2)” value was -0.0418.
With “HMSENLESEFFGIVVITQTLLQKELRDKPMTVELIRKTVEDVMSKHYSDSSVDKAKVEEELIRRFSTW” the “soluble fraction (log2)” value was -1.75.
In the case of “HMSENMSQDLAQWYRLQQALHPNLDAPELWATDLTSQQRTVRDQLIQQWAQEKRDSLWSEISGD”, the “soluble fraction (log2)” value is reported as -0.618.
With “HMSEPFDMAVPLTSGGRRLDQVLAELLPQHSRNRLQGWIRDGLLTLDGVTVTEPKRKLAGGEQLALLLP” the “soluble fraction (log2)” value was -0.238.
With “HMSEPTLESLRAEGAHHYDPARFHYLEVLARRMPGQHAAVQQVLASRLREAVAAYAGRRSLI” the “soluble fraction (log2)” value was -0.252.
In the case of “HMSEQSEALRTGLDQLPINQRTALTLFHLHELNQSEVAKIMNISVGAVESLLFRGRQKMKQLLTSD”, the “soluble fraction (log2)” value is reported as -0.157.
In the case of “HMSERIITFGEATREAMLEEMRADERVFVYGEDIAKQGGIFGQFAGMKDEFPERVLDTPISETALVGAG”, the “soluble fraction (log2)” value is reported as -0.679.
In the case of “HMSERVVVPDLTGKDLVAAQSELREISLAGREEGPGDKVRRQFPVAGVKVPKDTVVILYTED”, the “soluble fraction (log2)” value is reported as 0.117.
For “HMSESAGKALDILFYLARVEDEVSLARLSKETGMNKATALRYLAVLESWGVVEKRPSGWSLGLSLFELGSK”, the “soluble fraction (log2)” value was -1.03.
In the case of “HMSESGTFRAEAADAGRRLDVALAERLRLSRAAAQRLIAAGLVLVEGSPARKRQILHAGETVAWRAAPP”, the “soluble fraction (log2)” value is reported as -0.0686.
In the case of “HMSESLLTAAGFKTIAATTPEQKRHLEWLHPDQVTAVQLTGQHYYVYPDVAKSQLFVGTPKEYQAYLALRT”, the “soluble fraction (log2)” value is reported as 0.00516.
For “HMSESLRDLVLSLIPEDGSTIGNRALITRLREDLPDLTDEDYHEVRDQLIAEGVLAKGRGQGGSVARANG”, the “soluble fraction (log2)” value was 0.0415.
With “HMSETIVFGQQKAINTLSSEAGLSSAELNNYLKKRYQRPLFQLTVSEGADLIQGFQDGTLTKASITQYVSQ” the “soluble fraction (log2)” value was 0.22.
In the case of “HMSETQDQTTIEIEDMITVGTLAERLSIPVSTLIGELMKNGVMATVNEKIDFDTAQIIVGELKLPIELSKK”, the “soluble fraction (log2)” value is reported as -0.269.
In the case of “HMSEYEYALHEFGITKKQSQRIFDRLSIADLEERINAIQTTLKQRSDIDNPAAYAWTVLNAE”, the “soluble fraction (log2)” value is reported as -0.767.
In the case of “HMSEYLDIHMAMEKLNRKEQLFVHLRFYEGLTQSEIAQRLFTSQVQISRLEKSVLEKMRQILSK”, the “soluble fraction (log2)” value is reported as -0.91.
For “HMSEYTRGELVSSLEAGEVAAVSIRPNRETPTGEAQIVLSDGQHRVLYVTDVREIEELVSSYGLNPQVEK”, the “soluble fraction (log2)” value was -0.233.
For “HMSFDNIKVGYISETAGYVKGISLADANEYAKLNPDTEFIFIDGDEKVRFLTINEVNGLTPKNLLRSDP”, the “soluble fraction (log2)” value was -1.6.
In the case of “HMSFGFFELKSSDTDKLFAYLNNNEHFGNIKEENGLVTAFLTSELDAQTLNKLLFDNGIIASHLVKRK”, the “soluble fraction (log2)” value is reported as -1.82.
With “HMSFMPDPSIHDAITYTVRSGDYLGKISTTFGVKVSDLQKWNSIKSNIIYPGQKLTVWVSSNKRESLQ” the “soluble fraction (log2)” value was 0.194.
In the case of “HMSFPLKRGSKGNRVTQLQNALVKKFGASILPKYGVDGMFGKEVEAALVRAKLPTSINESTYNSFV”, the “soluble fraction (log2)” value is reported as -0.0036.
In the case of “HMSFVAYEEEKAIGMVRLIGDGGMSFYIKDFAVLPGHQGKGVGQMLLMELQQYLLEHKPADWAVSLE”, the “soluble fraction (log2)” value is reported as -1.47.
With “HMSGAKLLAPVTGTLLRYTVAEGTKVSEGQTVIMLESMKMELEINAHKAGVIHFTAAAGAQVAEGDSLAEI” the “soluble fraction (log2)” value was -0.419.
For “HMSGDKKLQMNLILEFAQQNESFRTKDIEELLQIRSSRARKLISDLVTEGRLEALGENRNRRYQLI”, the “soluble fraction (log2)” value was -0.329.
With “HMSGDYRALYSSLPPERASSVVDALNVAGIPYRIQDSTGAIMVPAEQIYDARIRLAGQGLGK” the “soluble fraction (log2)” value was 0.0695.
In the case of “HMSGEPKNERQIEVPDVTKKSIREANNILTSEGLRLRIEGTGLAVSQKPAAGTMVEPDTIITVTFQAP”, the “soluble fraction (log2)” value is reported as -0.0704.
With “HMSGHEVMVQRITAIIAELYQYGFVSRKKMMDEFNISERTLYRDLNRLGDRIVPDGDGIYRLAPAYA” the “soluble fraction (log2)” value was -0.954.
With “HMSGHIPGIKIKGVIFFDKGSSSNHIIATTENNSNLKLRVGETVQGAVLKSIHPNHVIFFHHNQLIEVGIG” the “soluble fraction (log2)” value was 0.0374.
With “HMSGKGEFDQLLRSGEYVQAFQRANANGNVTLRRQQLLNLARHQAASGVGSGAIESLSTIQRI” the “soluble fraction (log2)” value was 0.104.
